B1: PAM-1, stably expressed in AtT-20 cells (natural protein)
chain: FKETTRSFSNECLGTIGPVTPLDASDFALDIRMPGVTPKESDTYFCMSMRLPVDEEAFVIDFKPRASMDTVHHMLLFGCNMPSSTGSYWFCDEGTCTDKANILYAWARNAPPTRLPKGVGFRVGGETGSKYFVLQVHYGDISAFRDNHKDCSGVSVHLTRVPQPLIAGMYLMMSVDTVIPPGEKVVNADISCQYKMYPMHVFAYRVHTHHLGKVVSGYRVRNGQWTLIGRQNPQLPQAFYPVEHPVDVTFGDILAARCVFTGEGRTEATHIGGTSSDEMCNLYIMYYMEAKYALSFMTCTKNVAPDMFRTIPAEANIPIPVKPDMVMMHGHHKEAENKEKSALMQQPKQGEEEVLEQGDFYSLLSKLLGEREDVHVHKYNPTEKTESGSDLVAEIANVVQKKDLGRSDAREGAEHEEWGNAILVRDRIHRFHQLESTLRPAESRAFSFQQPGEGPWEPEPSGDFHVEEELDWPGVYLLPGQVSGVALDSKNNLVIFHRGDHVWDGNSFDSKFVYQQRGLGPIEEDTILVIDPNNAEILQSSGKNLFYLPHGLSIDTDGNYWVTDVALHQVFKLDPHSKEGPLLILGRSMQPGSDQNHFCQPTDVAVEPSTGAVFVSDGYCNSRIVQFSPSGKFVTQWGEESSGSSPRPGQFSVPHSLALVPHLDQLCVADRENGRIQCFKTDTKEFVREIKHASFGRNVFAISYIPGFLFAVNGKPYFGDQEPVQGFVMNFSSGEIIDVFKPVRKHFDMPHDIVASEDGTVYIGDAHTNTVWKFTLTEKMEHRSVKKAGIEVQEIKEAEAVVEPKVENKPTSSELQKMQEKQKLSTEPGSGVSVVLITTLLVIPVLVLLAIVMFIRWKKSRAFGDHDRKLESSSGRVLGRFRGKGSGGLNLGNFFASRKGYSRKGFDRVSTEGSDQEKDEDDGTESEEEYSAPLPKPAPSS
B2: peptidylglycine α-amidating monooxygenase-1 (PAM-1), endogenous in mouse pituitary (natural protein)
chain: FKETTRSFSNECLGTTRPITPIDSSDFTLDIRMPGVTPKESDTYFCMSMRLPVDEEAFVIDFKPRASMDTVHHMLLFGCNMPSSTGSYWFCDEGTCTDKANILYAWARNAPPTRLPKGVGFRVGGETGSKYFVLQVHYGDISAFRDNHKDCSGVSLHLTRVPQPLIAGMYLMMSVNTVIPPGEKVVNSDISCHYKMYPMHVFAYRVHTHHLGKVVSGYRVRNGQWTLIGRQSPQLPQAFYPVEHPVDVAFGDILAARCVFTGEGRTEATHIGGTSSDEMCNLYIMYYMEAKHAVSFMTCTQNVAPDMFRTIPEEANIPIPVKSDMVMIHGHHKETENKEKSALIQQPKQGEEEAFEQGDFYSLLSKLLGEREDVVHVHKYNPTEKTESGSDLVAEIANVVQKKDLGRSDAREGAEHEEGGNAILVRDRIHKFHRLESTLRPAESRALSFQQPGEGPWEPELAGDFHVEEALEWPGVYLLPGQVSGVALDSKNNLVIFHRGDHVWDGNSFDSKFVYQQRGLGPIEEDTILVIDPNKAEILQSSGKNLFYLPHGLSIDTDGNYWVTDVALHQVFKLEPRSKEGPLLVLGRSMQPGSDQNHFCQPTDVAVEPSTGAVFVSDGYCNSRIVQFSPSGKFITQWGEESSGSSPKPGQFSVPHSLALVPHLNQLCVADRENGRIQCFKTDTKEFVREIKHASFGRNVFAISYIPGFLFAVNGKPYFGDQEPVQGFVMNFSSGEIIDVFKPVRKHFDMPHDIVASEDGTVYIGDAHTNTVWKFTLTESRLEVEHRSVKKAGIEVPEIKEAEAVVEPKVKNKPTSSELQKMQEKKKLIKDPGSGVPVVLITTLLVIPVVVLLAIAMFIRWKKSRAFGDHDRKLESSSGRVLGRLRGKGSSGLNLGNFFASRKGYSRKGFDRVSTEGSDQEKDEDDGSESEEEYSAPLPTPAPSS

Biological target: adaptor protein 1A complex (AP-1A; γ/β1/μ1A/σ1), endogenous, mouse (mouse (endogenous in pituitary and in AtT-20)) (UniProt P22892)
Sequence of UniProt P22892 (P22892 whole entry, chain 1 of 4): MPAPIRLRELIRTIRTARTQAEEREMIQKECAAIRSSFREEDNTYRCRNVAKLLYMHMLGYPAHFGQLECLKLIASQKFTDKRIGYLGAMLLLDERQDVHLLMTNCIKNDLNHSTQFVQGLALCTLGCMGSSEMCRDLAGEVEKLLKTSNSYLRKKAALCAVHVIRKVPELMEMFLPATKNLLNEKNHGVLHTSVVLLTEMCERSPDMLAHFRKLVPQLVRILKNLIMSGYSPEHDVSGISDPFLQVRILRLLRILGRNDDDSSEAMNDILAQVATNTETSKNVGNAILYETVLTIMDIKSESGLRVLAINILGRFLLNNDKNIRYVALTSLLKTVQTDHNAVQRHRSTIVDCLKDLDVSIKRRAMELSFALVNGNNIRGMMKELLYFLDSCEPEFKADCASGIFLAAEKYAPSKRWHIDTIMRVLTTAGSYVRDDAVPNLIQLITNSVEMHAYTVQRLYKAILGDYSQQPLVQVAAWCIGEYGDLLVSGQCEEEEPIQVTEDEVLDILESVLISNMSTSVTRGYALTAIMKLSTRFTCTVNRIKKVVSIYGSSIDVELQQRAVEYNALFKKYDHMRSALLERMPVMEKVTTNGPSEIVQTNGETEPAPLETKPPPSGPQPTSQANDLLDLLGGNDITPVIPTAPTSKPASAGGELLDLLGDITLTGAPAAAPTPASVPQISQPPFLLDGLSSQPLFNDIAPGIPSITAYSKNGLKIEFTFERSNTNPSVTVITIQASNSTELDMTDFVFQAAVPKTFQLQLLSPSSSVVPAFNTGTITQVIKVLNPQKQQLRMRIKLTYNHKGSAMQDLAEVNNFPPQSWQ
Sequence of UniProt P22892 (O35643 whole entry, chain 2 of 4, further chain): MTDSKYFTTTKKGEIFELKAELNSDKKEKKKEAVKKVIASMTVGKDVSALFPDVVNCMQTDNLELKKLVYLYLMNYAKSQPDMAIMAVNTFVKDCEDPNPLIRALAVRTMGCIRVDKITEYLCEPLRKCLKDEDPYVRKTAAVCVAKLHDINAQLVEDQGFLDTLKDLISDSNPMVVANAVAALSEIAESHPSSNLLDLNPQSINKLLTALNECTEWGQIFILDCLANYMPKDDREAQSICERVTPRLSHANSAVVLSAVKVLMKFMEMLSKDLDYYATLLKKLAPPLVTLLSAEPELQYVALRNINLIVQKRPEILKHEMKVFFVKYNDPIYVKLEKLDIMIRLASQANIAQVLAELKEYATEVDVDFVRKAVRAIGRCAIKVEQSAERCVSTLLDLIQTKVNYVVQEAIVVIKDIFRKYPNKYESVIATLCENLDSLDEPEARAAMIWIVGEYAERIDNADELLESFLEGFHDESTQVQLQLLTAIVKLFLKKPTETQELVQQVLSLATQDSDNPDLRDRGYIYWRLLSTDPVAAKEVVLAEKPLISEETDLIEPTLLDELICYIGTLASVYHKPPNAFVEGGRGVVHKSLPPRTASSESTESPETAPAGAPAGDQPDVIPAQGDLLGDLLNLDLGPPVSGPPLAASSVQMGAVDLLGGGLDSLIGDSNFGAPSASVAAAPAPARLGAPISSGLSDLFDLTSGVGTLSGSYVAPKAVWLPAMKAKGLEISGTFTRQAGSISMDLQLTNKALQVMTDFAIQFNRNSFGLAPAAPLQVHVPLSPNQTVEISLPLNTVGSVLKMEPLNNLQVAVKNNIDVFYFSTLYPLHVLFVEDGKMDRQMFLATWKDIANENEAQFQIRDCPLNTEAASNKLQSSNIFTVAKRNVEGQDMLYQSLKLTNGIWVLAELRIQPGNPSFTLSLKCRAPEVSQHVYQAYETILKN
Sequence of UniProt P22892 (P35585 whole entry, chain 3 of 4, further chain): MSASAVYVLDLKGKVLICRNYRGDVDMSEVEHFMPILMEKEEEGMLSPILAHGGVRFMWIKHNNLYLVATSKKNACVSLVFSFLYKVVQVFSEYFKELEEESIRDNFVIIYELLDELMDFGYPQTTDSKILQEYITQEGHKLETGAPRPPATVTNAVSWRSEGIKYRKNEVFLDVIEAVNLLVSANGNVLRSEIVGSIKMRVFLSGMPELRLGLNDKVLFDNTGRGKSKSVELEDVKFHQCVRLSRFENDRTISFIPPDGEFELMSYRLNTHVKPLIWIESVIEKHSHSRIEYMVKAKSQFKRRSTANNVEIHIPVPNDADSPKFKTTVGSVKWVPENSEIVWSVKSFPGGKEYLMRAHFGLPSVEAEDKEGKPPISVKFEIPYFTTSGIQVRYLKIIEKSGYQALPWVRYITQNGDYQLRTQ
Sequence of UniProt P22892 (P61967 whole entry, chain 4 of 4, further chain): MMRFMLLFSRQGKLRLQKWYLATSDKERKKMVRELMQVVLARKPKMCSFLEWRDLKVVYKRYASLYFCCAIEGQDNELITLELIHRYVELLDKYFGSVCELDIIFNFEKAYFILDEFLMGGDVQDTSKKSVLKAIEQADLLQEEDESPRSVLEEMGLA
Assay: co-IP

Row | Binder | percent of PAM-1 co-immunoprecipitated
1 | B1 | 2%
2 | B2 | 3%

Reference: publication PMC4167924
